Source: PMC5437283

Columns and labels:
Details in all cases: remark: other sources report otherwise
[1] = biological target: T1, wildtype pneumolysin (PLYWT) (Streptococcus pneumoniae), P0C2J9; experiment: electron cryo-tomography with subtomogram averaging; pores: preformed cholesterol-containing liposomes incubated with PLY (1 mg/ml) at 37°C for 30-180 min; subtomogram average at 27 Å
T1 chain: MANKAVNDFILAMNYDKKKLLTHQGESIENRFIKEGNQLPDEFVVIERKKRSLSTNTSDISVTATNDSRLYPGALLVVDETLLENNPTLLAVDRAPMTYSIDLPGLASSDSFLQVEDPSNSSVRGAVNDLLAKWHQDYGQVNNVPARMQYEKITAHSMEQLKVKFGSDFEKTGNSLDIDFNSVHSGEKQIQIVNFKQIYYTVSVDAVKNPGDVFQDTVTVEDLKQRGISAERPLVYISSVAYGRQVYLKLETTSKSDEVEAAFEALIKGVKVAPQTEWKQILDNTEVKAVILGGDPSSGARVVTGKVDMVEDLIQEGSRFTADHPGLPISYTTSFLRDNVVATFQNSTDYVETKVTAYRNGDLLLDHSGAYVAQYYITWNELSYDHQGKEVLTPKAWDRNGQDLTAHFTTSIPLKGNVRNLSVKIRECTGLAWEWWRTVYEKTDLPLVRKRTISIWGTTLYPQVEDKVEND

[2] = biological target: T1, wildtype pneumolysin (PLYWT) …; experiment: electron cryo-tomography with subtomogram averaging; prepores: preformed cholesterol-containing liposomes incubated with PLY (1 mg/ml) at room temperature for 30 min; subtomogram average at 22 Å
[3] = biological target: T1, wildtype pneumolysin (PLYWT) …; experiment: cryo-EM structure; single-particle cryoEM of PLY pore complexes formed on DOPC/cholesterol liposomes (37°C, 30 min), solubilised with 0.56% Cymal-6 and exchanged into amphipol A8-35; 50 mM Tris-HCl pH 7.0, 150 mM NaCl, 5 mM β-mercaptoethanol; 42-fold symmetry, 4.5 Å

B1: wildtype pneumolysin (PLYWT), P0C2J9 1-471 (natural protein)
chain: MANKAVNDFILAMNYDKKKLLTHQGESIENRFIKEGNQLPDEFVVIERKKRSLSTNTSDISVTATNDSRLYPGALLVVDETLLENNPTLLAVDRAPMTYSIDLPGLASSDSFLQVEDPSNSSVRGAVNDLLAKWHQDYGQVNNVPARMQYEKITAHSMEQLKVKFGSDFEKTGNSLDIDFNSVHSGEKQIQIVNFKQIYYTVSVDAVKNPGDVFQDTVTVEDLKQRGISAERPLVYISSVAYGRQVYLKLETTSKSDEVEAAFEALIKGVKVAPQTEWKQILDNTEVKAVILGGDPSSGARVVTGKVDMVEDLIQEGSRFTADHPGLPISYTTSFLRDNVVATFQNSTDYVETKVTAYRNGDLLLDHSGAYVAQYYITWNELSYDHQGKEVLTPKAWDRNGQDLTAHFTTSIPLKGNVRNLSVKIRECTGLAWEWWRTVYEKTDLPLVRKRTISIWGTTLYPQVEDKVEND
B1 was tested, and the stoichiometry N [1] was 34 subunits, the stoichiometry N [2] was 34 subunits and the stoichiometry N [3] was 42 subunits.
